Results on one molecule are retold here after publication PMC5578738 (eLife, 2017).

Usually Kd stands for the concentration at which binding is half-saturated. Low readings indicate tighter binding, high ones weaker binding. One may read the koff as a measure of how fast the partners let go of each other. Low values mean slow dissociation, high ones fast dissociation.

Some results are limits rather than exact numbers.

For the test, the target named is T1, Side-VI (CG34114) complete ectodomain, biotinylated (SPR) (Drosophila melanogaster, UniProt Q0KI85 1-1087, biotin on the biotin acceptor peptide (E. coli BirA)).
T1 construct: Side-VI (CG34114), Drosophila, complete ectodomain; source: Trichoplusia ni High Five cells, baculovirus, secreted, purified (Ni-NTA, SEC)
T1 sequence (looked up): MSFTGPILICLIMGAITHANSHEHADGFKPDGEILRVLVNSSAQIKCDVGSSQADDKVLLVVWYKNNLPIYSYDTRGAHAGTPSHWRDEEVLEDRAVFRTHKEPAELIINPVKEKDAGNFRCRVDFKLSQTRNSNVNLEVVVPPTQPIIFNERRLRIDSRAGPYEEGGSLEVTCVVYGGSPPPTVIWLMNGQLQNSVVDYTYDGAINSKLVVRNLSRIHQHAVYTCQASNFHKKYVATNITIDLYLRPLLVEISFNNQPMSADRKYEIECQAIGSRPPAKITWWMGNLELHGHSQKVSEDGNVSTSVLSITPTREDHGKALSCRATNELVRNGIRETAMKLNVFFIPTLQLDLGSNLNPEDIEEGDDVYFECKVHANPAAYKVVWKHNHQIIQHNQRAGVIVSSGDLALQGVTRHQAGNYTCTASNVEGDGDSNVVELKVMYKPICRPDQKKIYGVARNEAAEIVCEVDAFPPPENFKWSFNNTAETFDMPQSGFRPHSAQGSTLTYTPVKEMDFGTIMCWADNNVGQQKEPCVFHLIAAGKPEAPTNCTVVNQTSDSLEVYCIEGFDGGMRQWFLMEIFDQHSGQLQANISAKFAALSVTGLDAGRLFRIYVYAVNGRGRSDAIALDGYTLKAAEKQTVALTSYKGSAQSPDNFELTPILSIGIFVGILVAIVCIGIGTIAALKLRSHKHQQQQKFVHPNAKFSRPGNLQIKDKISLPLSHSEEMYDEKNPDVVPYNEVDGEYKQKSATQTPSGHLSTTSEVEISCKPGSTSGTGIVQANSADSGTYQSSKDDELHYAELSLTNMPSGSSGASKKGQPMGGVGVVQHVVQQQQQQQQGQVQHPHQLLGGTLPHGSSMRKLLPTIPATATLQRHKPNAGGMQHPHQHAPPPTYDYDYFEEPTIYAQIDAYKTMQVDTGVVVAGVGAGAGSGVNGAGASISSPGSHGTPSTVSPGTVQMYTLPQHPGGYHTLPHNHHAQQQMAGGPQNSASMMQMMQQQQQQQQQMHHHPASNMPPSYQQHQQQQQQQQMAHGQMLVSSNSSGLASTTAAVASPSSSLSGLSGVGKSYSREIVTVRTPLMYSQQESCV
The test is described as follows: SPR; Biacore T100; biotinylated Side-VI captured on an SA chip, Beat-Va or Beat-Vb flowed over; HBSp+ with 500 mM NaCl and 15% glycerol; equilibrium responses fitted to a Langmuir isotherm. The conditions noted are these: both partners purified. For orientation: Surface plasmon resonance follows binding to a sensor surface in real time, without labels.

B1: Beat-Va complete ectodomain (SPR) (domain or fragment)
chain: LFVTDISVPEIVDFRDNVTLSCSYDMRGHTLNSVKWYKDHEEFFRYSPLTSPIYMTFDVAGLQVLEGKYVCNESSCRLDLSLQGAKSTGLYKCEVSGDAPHFKLADKADNMTVAALPQNDPLIESFNSMYRMEEYLKATCISDFSSLPTRLTWYINGEQPLLGELYPTTDTSLAAHDYVLRRQRLQVQFFLQGQRFFQAGKILELKCVAEIENYPELRREKTLSASLSQYDNFNNQMPLRHANANSGSAQRSILCGRTSLISAFLAAILLIHCLRRPS
On to B1, for which the dissociation constant Kd was found to be 760 nM and the koff is at least 0.5 s⁻¹.
